Measured values as given in US7527809B2, “Polyhydroxyalkanoate-containing magnetic structure, and manufacturing method and use thereof” (Canon Kabushiki Kaisha, priority 2003, dated 2009).

Assay: PHA synthetic enzyme activity (CoA release, 5,5'-dithiobis-(2-nitrobenzoic acid))
Type: biochemical
Details: purified enzymes, Table 1
Excerpt: Measurement of activity of PHA synthetic enzyme may be performed by using various known methods. For example, the measurement may be performed by the following method that is based on a measuring principle in that CoA released during polymerization of 3-hydroxyacyl CoA by the catalytic action of PHA synthetic enzyme to obtain PHA forms a color with 5,5′-dithiobis-(2-nitrobenzoic acid). Reagent 1: bovine serum albumin (manufactured by Sigma) dissolved in 0.1 M Tris hydrochloride buffer (pH 8.0) 3.0 mg/ml; Reagent 2: 3-hydroxyoctanoyl CoA dissolved in 0.1 M Tris hydrochloride buffer (pH 8.0) in 3.0 mM; Reagent 3: Trichloroacetic acid dissolved in 0.1 M Tris hydrochloride buffer (pH 8.0) in 10 mg/ml; Reagent 4: 5,5′-dithiobis-(2-nitrobenzoic acid) dissolved in 0.1 M Tris hydrochloride buffer (pH 8.0) in 2.0 mM. First reaction (PHA synthesis reaction): 100 μl of Reagent 1 is added to 100 μl of a sample (enzyme) solution and mixed. […] 500 μl of Reagent 4 is added to 500 μl of the resultant supernatant and the resultant is incubated at 30° C. for 10 minutes and then measured for optical density (absorbance) at 412 nm. […]
The activity of each purified enzyme was measured according to the method described above. Further, protein concentration in the sample was determined using a micro BCA protein assay reagent kit (available from Pierce Chemical Inc.). […]

B1: Purified enzyme solution (2): purified PHA synthetic enzyme YN2-C1 from pYN2-C1 (protein)
chain: MSNKSNDELKYQASENTLGLNPVVGLRGKDLLASARMVLRQAIKQPVHSVKHVAHFGLELKNVLLGKSGLQPTSDDRRFADPAWSQNPLYKRYLQTYLAWRKELHDWIDESNLAPKDVARGHFVINLMTEAMAPTNTAANPAAVKRFFETGGKSLLDGLSHLAKDLVHNGGMPSQVNMGAFEVGKSLGVTEGAVVFRNDVLELIQYKPTTEQVYERPLLVVPPQINKFYVFDLSPDKSLARFCLRNNVQTFIVSWRNPTKEQREWGLSTYIEALKEAVDVVTAITGSKDVNMLGACSGGITCTALLGHYAAIGENKVNALTLLVSVLDTTLDSDVALFVNEQTLEAAKRHSYQAGVLEGRDMAKVFAWMRPNDLIWNYWVNNYLLGNEPPVFDILFWNNDTTRLPAAFHGDLIELFKNNPLIRPNALEVCGTPIDLKQVTADIFSLAGTNDHITPWKSCYKSAQLFGGNVEFVLSSSGHIQSILNPPGNPKSRYMTSTEVAENADEWQANATKHTDSWWLHWQAWQAQRSGELKKSPTKLGSKAYPAGEAAPGTYVHER
modifications: Pseudomonas cichorii YN2; FERM BP-7375
- Activity: 2.1 U/ml
- Relative activity: 4.1 U/mg protein
